In patent publication US20200199204A1 (UNITED STATES OF AMERICA AS REPRESENTED BY THE SECRETARY …, published 2020):

What was measured:
Assay in all cases: cell-based or functional assay
HIV-1 Env of Q842.d12 = HIV-1 Env of Q842.d12 (HIV-1)
HIV-1 Env of ZM233.6 = HIV-1 Env of ZM233.6 (HIV-1)
HIV-1 Env of 3016.V5.c36 = HIV-1 Env of 3016.V5.c36 (HIV-1)
HIV-1 Env of Q461.e2 = HIV-1 Env of Q461.e2 (HIV-1)
HIV-1 Env of AC10.29 = HIV-1 Env of AC10.29 (HIV-1)
HIV-1 Env of C1080.c3 = HIV-1 Env of C1080.c3 (HIV-1)
HIV-1 Env of WITO.33 = HIV-1 Env of WITO.33 (HIV-1)
HIV-1 Env of MB201 = HIV-1 Env of MB201 (HIV-1)
HIV-1 Env of PVO.04 = HIV-1 Env of PVO.04 (HIV-1)
HIV-1 Env of DU422.01 = HIV-1 Env of DU422.01 (HIV-1)
HIV-1 Env of REJO.67 = HIV-1 Env of REJO.67 (HIV-1)
HIV-1 Env of 0260.v5.c36 = HIV-1 Env of 0260.v5.c36 (HIV-1)
HIV-1 Env of Q259.d2.17 = HIV-1 Env of Q259.d2.17 (HIV-1)
HIV-1 Env of TRJO.58 = HIV-1 Env of TRJO.58 (HIV-1)
HIV-1 Env of QH0692.42 = HIV-1 Env of QH0692.42 (HIV-1)
HIV-1 Env of ZM249.1 = HIV-1 Env of ZM249.1 (HIV-1)
HIV-1 Env of MB539.2B7 = HIV-1 Env of MB539.2B7 (HIV-1)
HIV-1 Env of DU172.17 = HIV-1 Env of DU172.17 (HIV-1)
HIV-1 Env of UG037.8 = HIV-1 Env of UG037.8 (HIV-1)
HIV-1 Env of 6535.3 = HIV-1 Env of 6535.3 (HIV-1)
HIV-1 Env of Q23.17 = HIV-1 Env of Q23.17 (HIV-1)
HIV-1 Env of RHPA.7 = HIV-1 Env of RHPA.7 (HIV-1)
HIV-1 Env of BG505.w6m = HIV-1 Env of BG505.w6m (HIV-1)
HIV-1 Env of CAAN.A2 = HIV-1 Env of CAAN.A2 (HIV-1)
HIV-1 Env of CAP256.PI = HIV-1 Env of CAP256.PI (HIV-1)
HIV-1 Env of ZM135.10a = HIV-1 Env of ZM135.10a (HIV-1)
HIV-1 Env of ZM53.12 = HIV-1 Env of ZM53.12 (HIV-1)
HIV-1 Env of ZM109.4 = HIV-1 Env of ZM109.4 (HIV-1)
HIV-1 Env of CAP256.SU = HIV-1 Env of CAP256.SU (HIV-1)
HIV-1 Env of RW020.2 = HIV-1 Env of RW020.2 (HIV-1)
HIV-1 Env of DU156.12 = HIV-1 Env of DU156.12 (HIV-1)
HIV-1 Env of CAP45.G3 = HIV-1 Env of CAP45.G3 (HIV-1)
HIV-1 Env of ZM197.7 = HIV-1 Env of ZM197.7 (HIV-1)
HIV-1 Env of 6405.v4.c34 = HIV-1 Env of 6405.v4.c34 (HIV-1)
HIV-1 Env of Q769.d22 = HIV-1 Env of Q769.d22 (HIV-1)
HIV-1 Env of CM244.ec1 = HIV-1 Env of CM244.ec1 (HIV-1)
HIV-1 Env of CAP210.E8 = HIV-1 Env of CAP210.E8 (HIV-1)
HIV-1 Env of CAP244.D3 = HIV-1 Env of CAP244.D3 (HIV-1)
HIV-1 Env of THRO.18 = HIV-1 Env of THRO.18 (HIV-1)
HIV-1 Env of Q168.a2 = HIV-1 Env of Q168.a2 (HIV-1)
HIV-1 Env of 191821.E6.1 = HIV-1 Env of 191821.E6.1 (HIV-1)
HIV-1 Env of 96ZM651.02 = HIV-1 Env of 96ZM651.02 (HIV-1)
HIV-1 Env of TRO.11 = HIV-1 Env of TRO.11 (HIV-1)
HIV-1 Env of KER2018.11 = HIV-1 Env of KER2018.11 (HIV-1)
HIV-1 Env of SC422.8 = HIV-1 Env of SC422.8 (HIV-1)
HIV-1 Env of KER2008.12 = HIV-1 Env of KER2008.12 (HIV-1)
HIV-1 Env of ZM214.15 = HIV-1 Env of ZM214.15 (HIV-1)

B1: CAP256-VRC26.07 (antibody, V domains shown)
VH: EVQLVESGGGVVQPGRSLRLSCVGSQFSFNRYGMHWVRQAPGKGLEWVAGISFDGTDRYHADNVWGRFTISRDNSKNTLYLQMSSLRAEDTALYYCAKDLREDECEEWWSDYYDFGKKLPCRKSRGVAGVFDKWGQGTMVTVSS
VL: QAVLTQPPSVSAAPGQNVTISCSGSGSNIGNNFVSWYQQRPGTAPKLLIYESNKRPSGIPDRFSGSKSGTSATLAITGLQTGDEAYYYCATWAARLNSARVFGTGTMVTVLG
- neutralization IC50 (HIV-1 Env of Q842.d12): > 50 µg/mL
- neutralization IC50 (HIV-1 Env of ZM233.6): > 50 µg/mL
- neutralization IC50 (HIV-1 Env of 3016.V5.c36): > 50 µg/mL
- neutralization IC50 (HIV-1 Env of Q461.e2): > 50 µg/mL
- neutralization IC50 (HIV-1 Env of AC10.29): > 50 µg/mL
- neutralization IC50 (HIV-1 Env of C1080.c3): > 50 µg/mL
- neutralization IC50 (HIV-1 Env of WITO.33): > 50 µg/mL
- neutralization IC50 (HIV-1 Env of MB201): > 50 µg/mL
- neutralization IC50 (HIV-1 Env of PVO.04): > 50 µg/mL
- neutralization IC50 (HIV-1 Env of DU422.01): > 50 µg/mL
- neutralization IC50 (HIV-1 Env of REJO.67): > 50 µg/mL
- neutralization IC50 (HIV-1 Env of 0260.v5.c36): > 50 µg/mL
- neutralization IC50 (HIV-1 Env of Q259.d2.17): 42.5 µg/mL
- neutralization IC50 (HIV-1 Env of TRJO.58): > 50 µg/mL
- neutralization IC50 (HIV-1 Env of QH0692.42): > 50 µg/mL
- neutralization IC50 (HIV-1 Env of ZM249.1): 44.1 µg/mL
- neutralization IC50 (HIV-1 Env of MB539.2B7): > 50 µg/mL
- neutralization IC50 (HIV-1 Env of DU172.17): > 50 µg/mL
- neutralization IC50 (HIV-1 Env of UG037.8): > 50 µg/mL
- neutralization IC50 (HIV-1 Env of 6535.3): > 50 µg/mL
- neutralization IC50 (HIV-1 Env of Q23.17): > 50 µg/mL
- neutralization IC50 (HIV-1 Env of RHPA.7): > 50 µg/mL
- neutralization IC50 (HIV-1 Env of BG505.w6m): > 50 µg/mL
- neutralization IC50 (HIV-1 Env of CAAN.A2): > 50 µg/mL
- neutralization IC50 (HIV-1 Env of CAP256.PI): > 50 µg/mL
- neutralization IC50 (HIV-1 Env of ZM135.10a): > 50 µg/mL
- neutralization IC50 (HIV-1 Env of ZM53.12): 0.014 µg/mL
- neutralization IC50 (HIV-1 Env of ZM109.4): > 50 µg/mL
- neutralization IC50 (HIV-1 Env of CAP256.SU): 0.008 µg/mL
- neutralization IC50 (HIV-1 Env of RW020.2): > 50 µg/mL
- neutralization IC50 (HIV-1 Env of DU156.12): > 50 µg/mL
- neutralization IC50 (HIV-1 Env of CAP45.G3): > 50 µg/mL
- neutralization IC50 (HIV-1 Env of ZM197.7): > 50 µg/mL
- neutralization IC50 (HIV-1 Env of 6405.v4.c34): > 50 µg/mL
- neutralization IC50 (HIV-1 Env of Q769.d22): > 50 µg/mL
- neutralization IC50 (HIV-1 Env of CM244.ec1): 40.1 µg/mL
- neutralization IC50 (HIV-1 Env of CAP210.E8): 0.021 µg/mL
- neutralization IC50 (HIV-1 Env of CAP244.D3): > 50 µg/mL
- neutralization IC50 (HIV-1 Env of THRO.18): > 50 µg/mL
- neutralization IC50 (HIV-1 Env of Q168.a2): > 50 µg/mL
- neutralization IC50 (HIV-1 Env of 191821.E6.1): > 50 µg/mL
- neutralization IC50 (HIV-1 Env of 96ZM651.02): > 50 µg/mL
- neutralization IC50 (HIV-1 Env of TRO.11): > 50 µg/mL
- neutralization IC50 (HIV-1 Env of KER2018.11): 3.1 µg/mL
- neutralization IC50 (HIV-1 Env of SC422.8): > 50 µg/mL
- neutralization IC50 (HIV-1 Env of KER2008.12): > 50 µg/mL
- neutralization IC50 (HIV-1 Env of ZM214.15): > 50 µg/mL
